From article PMC4980432, “Structure of a Complete ATP Synthase Dimer Reveals the Molecular Basis of Inner Mitochondrial Membrane Morphology” (Molecular Cell, 2016)
One block for each binder: values may come before it.

Tests used:
[1] = target: T1, Y. lipolytica F1Fo-ATP synthase subunit α (Yarrowia lipolytica, UniProt Q6C326 25-536); assay: cryo-EM structure; single-particle cryo-EM of the purified dimer 2YLF1Fo; C2 symmetry imposed; 7.8 Å overall, 6.9 Å for F1 and 6.2 Å for the Fo dimer after masking; fitted with the YLF1c10 X-ray structure and homology models of the peripheral stalk; settings: both partners purified
T1 construct: subunit α of the mitochondrial F1Fo-ATP synthase, Yarrowia lipolytica; three copies in each F1 head, in the states αE, αTP and αDP; also called αE; αTP; source: endogenous, purified from Y. lipolytica mitochondria as part of 2YLF1Fo, 1YLF1Fo and the YLF1c10 subcomplex

[2] = target: the molecule itself; assay: crystal structure; YLF1c10 subcomplex crystallised from the 1YLF1Fo complex without added nucleotides or inhibitors; 3.5 Å; molecular replacement with a model based on S. cerevisiae F1c10
[3] = target: T2, Y. lipolytica F1Fo-ATP synthase subunit a (Yarrowia lipolytica, UniProt Q36258 7-255); assay: cryo-EM structure; single-particle cryo-EM of the purified dimer 2YLF1Fo; C2 symmetry imposed; 7.8 Å overall, 6.9 Å for F1 and 6.2 Å for the Fo dimer after masking; fitted with the YLF1c10 X-ray structure and homology models of the peripheral stalk; settings: both partners purified
T2 construct: subunit a of the mitochondrial F1Fo-ATP synthase, Yarrowia lipolytica; mitochondrially encoded; helices aH1 to aH6; source: endogenous, purified from Y. lipolytica mitochondria as part of 2YLF1Fo
T2 sequence (looked up): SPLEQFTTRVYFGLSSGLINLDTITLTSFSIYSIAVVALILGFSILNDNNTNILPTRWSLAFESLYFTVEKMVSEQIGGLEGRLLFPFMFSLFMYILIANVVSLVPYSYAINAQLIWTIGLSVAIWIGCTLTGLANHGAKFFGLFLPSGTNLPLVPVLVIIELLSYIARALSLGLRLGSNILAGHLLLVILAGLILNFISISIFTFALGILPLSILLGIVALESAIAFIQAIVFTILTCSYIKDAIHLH

[4] = target: T3, e/g heterodimer of the Y. lipolytica F1Fo-ATP synthase (subunits e and g) (Yarrowia lipolytica, UniProt B5FVG3 1-90; B5FVB8 1-138); assay: as above; settings: both partners purified
T3 construct: subunit e of the mitochondrial F1Fo-ATP synthase, Yarrowia lipolytica; predicted N-terminal trans-membrane helix with a GxxxG motif and a hydrophilic C terminus; subunit g of the mitochondrial F1Fo-ATP synthase, Yarrowia lipolytica; N-terminal matrix domain and predicted C-terminal trans-membrane helix with a GxxxG motif; the two subunits are not resolved from each other in the 6.2 Å map; also …
T3 sequence (looked up) 1: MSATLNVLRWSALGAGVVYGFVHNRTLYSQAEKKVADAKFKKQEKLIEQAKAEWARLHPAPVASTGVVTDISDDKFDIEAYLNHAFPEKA
T3 sequence (looked up) 2: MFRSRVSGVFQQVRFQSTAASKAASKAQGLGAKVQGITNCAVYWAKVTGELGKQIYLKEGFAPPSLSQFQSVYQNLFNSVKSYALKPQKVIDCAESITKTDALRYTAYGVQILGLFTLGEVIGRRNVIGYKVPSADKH

[5] = target: the molecule itself; assay: as above
[6] = target: T1, Y. lipolytica F1Fo-ATP synthase subunit …; assay: crystal structure; YLF1c10 subcomplex crystallised from the 1YLF1Fo complex without added nucleotides or inhibitors; 3.5 Å; molecular replacement with a model based on S. cerevisiae F1c10; settings: both partners purified

T1 sequence (Q6C326 25-536): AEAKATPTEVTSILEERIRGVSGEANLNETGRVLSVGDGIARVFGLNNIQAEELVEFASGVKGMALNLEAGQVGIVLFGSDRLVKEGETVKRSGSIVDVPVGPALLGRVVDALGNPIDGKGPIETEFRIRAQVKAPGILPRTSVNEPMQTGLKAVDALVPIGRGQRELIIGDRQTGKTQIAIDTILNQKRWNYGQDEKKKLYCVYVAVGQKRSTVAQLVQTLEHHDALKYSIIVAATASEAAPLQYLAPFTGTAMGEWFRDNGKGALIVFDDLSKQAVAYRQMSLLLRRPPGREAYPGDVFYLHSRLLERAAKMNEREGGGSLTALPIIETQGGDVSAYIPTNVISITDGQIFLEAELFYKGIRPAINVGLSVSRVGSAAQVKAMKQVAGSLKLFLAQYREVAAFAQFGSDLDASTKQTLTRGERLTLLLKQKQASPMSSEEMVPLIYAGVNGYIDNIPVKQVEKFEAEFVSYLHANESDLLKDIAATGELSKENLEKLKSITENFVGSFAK

binding result [1]: binds
B1: Y. lipolytica F1Fo-ATP synthase subunit h (natural protein, Yarrowia lipolytica, UniProt Q6C2V6 20-108, looked up)
chain: NLISEAYTREVRAFKAPKLSAKDAEGQVKPWSAPSAPKPPVVEGADAAELQAYAEAPVDVEGQTNSKSASPQANDEDWLAFEEEEGVAV
notes: peripheral stalk subunit h of the mitochondrial F1Fo-ATP synthase, Yarrowia lipolytica; also called equivalent of bovine F6; source: endogenous, purified from Y. lipolytica mitochondria as part of 2YLF1Fo

binding result [3]: binds
B2: Y. lipolytica F1Fo-ATP synthase subunit c (natural protein, Yarrowia lipolytica, UniProt Q37695 1-76, looked up)
chain: MQLVLAGKYIGAGLASIGLVGAGIGIAIVFAALINGVSRNPALKGQLFTYSILGFALSEATGLFALMIAFLLLYAV
notes: subunit c (subunit 9) of the mitochondrial F1Fo-ATP synthase, Yarrowia lipolytica; mitochondrially encoded; ten copies form the rotor ring; also called c subunit; c-ring; source: endogenous, purified from Y. lipolytica mitochondria as part of 2YLF1Fo and the YLF1c10 subcomplex
stoichiometry N [2]: 10

binding result [1]: binds
B3: Y. lipolytica F1Fo-ATP synthase subunit OSCP (natural protein, Yarrowia lipolytica, UniProt Q6C9B1 25-214, looked up)
chain: APVKVPVQLFGLDGTYATALYTAAAKESDLSKTEGSLAKLRDVFAQQPEVAQIVSNPTLSHEDKQTVVNVLSQAVGGDKTLTNFLTVISDNNRLALIPGIIEKFETLVNASKGLVEATVTSASELDKKTVNRIQAAIAGSSFVGEGELKLNLKVNPDILGGLIVEVAERTVDVSVASKIARLNHVLSEPI
notes: peripheral stalk subunit OSCP of the mitochondrial F1Fo-ATP synthase, Yarrowia lipolytica; source: endogenous, purified from Y. lipolytica mitochondria as part of 2YLF1Fo

binding result [1]: binds | binding result [4]: binds
B4: Y. lipolytica F1Fo-ATP synthase subunit b (natural protein, Yarrowia lipolytica, UniProt Q6C105 15-217, looked up)
chain: SNQVDPKVKATSILDSIPGNNVLSKTGVLATGVLGSIYAISNELYIVNDESIVLGVFAAFVVVVAKLGGPGYTSWADGYIENMRNILNTTRDKHTDAVKERIGDVSKLKDVVKTTQDLFAVSKDTVKLEAEVFETKQQVVLAAEAKSVLDSWVRYENSVRQREQKLLTETVISKIEKDLKDPKFQQKILQQSVEDIEKLFAKA
notes: subunit b of the mitochondrial F1Fo-ATP synthase, Yarrowia lipolytica; two trans-membrane helices at its N terminus; also called peripheral stalk subunit b; source: endogenous, purified from Y. lipolytica mitochondria as part of 2YLF1Fo

B5: Y. lipolytica F1Fo-ATP synthase subunit f (natural protein, Yarrowia lipolytica, UniProt Q6C9E6 7-103, looked up)
chain: LSTLIPPKVASPATLHGAPNAKRMADVVSFYKALPQGAAPALPKTANPFKLYYRKYFHPKSGKASGAPLLHLILGIFLFGYISDYQFHLKHHKNGAH
notes: subunit f of the mitochondrial F1Fo-ATP synthase, Yarrowia lipolytica; nuclear-encoded; in yeast a 100-residue subunit with a hydrophilic N-terminal domain and a predicted C-terminal trans-membrane helix; source: endogenous, purified from Y. lipolytica mitochondria as part of 2YLF1Fo
binding result [5]: binds

binding result [6]: binds
B6: Y. lipolytica F1Fo-ATP synthase subunit γ (natural protein, Yarrowia lipolytica, UniProt Q6C338 22-293, looked up)
chain: ATLREIEMRLKSIKNIEKITNTMKIVASTKLGKAQRAMATSKVYNEASEKVFENSETAVPENIEKRLWVVVSSDKGLCGSIHSQLARTVRRKLLDFESGEKLIDIVAVGEKIKAQLGRSNPEQMRLSFGGTGKEAPTFEEAAHIADEILALDTQYDDIEIVYNKVLSGISFEPIMKESYSAKAIEDAPKFGQYELEDDVVKNLADFSLANTIYAAMAEGHAAEISARRNAMDNASKNASDMINKYSILYNRTRQAVITNELVDIITGASSLE
notes: subunit γ of the mitochondrial F1Fo-ATP synthase, Yarrowia lipolytica; also called central γ subunit; source: endogenous, purified from Y. lipolytica mitochondria as part of the YLF1c10 subcomplex (from 1YLF1Fo)

binding result [3]: binds
B7: Y. lipolytica F1Fo-ATP synthase subunit 8 (natural protein, Yarrowia lipolytica, UniProt Q36257 1-48, looked up)
chain: MPQLVPFYFTNQIFYGFASLSVIVYLFSIYILPHYLEIYVTRIFITKT
notes: subunit 8 of the mitochondrial F1Fo-ATP synthase, Yarrowia lipolytica; 48 residues; N-terminal MPQL motif, trans-membrane helix ended by Pro33; mitochondrially encoded; also called A6L in human; source: endogenous, purified from Y. lipolytica mitochondria as part of 2YLF1Fo

binding result [1]: binds
B8: Y. lipolytica F1Fo-ATP synthase subunit d (natural protein, Yarrowia lipolytica, UniProt Q6CFH9 1-176, looked up)
chain: MSVAAARSSAVKVDWGKIVSSLGLTGATVSSLQAFRKRHEEAKKNAYELQNQPTTVDFAHYRKVLKNQKVVDEIEQHFKSFKPVTYDVSKQLKTIDAFEAKAIEDAKATEGKVNQEIGDLQKTLENIESARPFDQLSVDDVFKARPDLEKKIEEMVKKGRWSVPGYNEKFGSVVLM
notes: peripheral stalk subunit d of the mitochondrial F1Fo-ATP synthase, Yarrowia lipolytica; also called d subunit; source: endogenous, purified from Y. lipolytica mitochondria as part of 2YLF1Fo
